This assay has as its target p53 (Homo sapiens (Human), UniProt P04637 1-393). Put plainly: cell-based or functional assay.

Sequence of p53 (P04637 whole entry): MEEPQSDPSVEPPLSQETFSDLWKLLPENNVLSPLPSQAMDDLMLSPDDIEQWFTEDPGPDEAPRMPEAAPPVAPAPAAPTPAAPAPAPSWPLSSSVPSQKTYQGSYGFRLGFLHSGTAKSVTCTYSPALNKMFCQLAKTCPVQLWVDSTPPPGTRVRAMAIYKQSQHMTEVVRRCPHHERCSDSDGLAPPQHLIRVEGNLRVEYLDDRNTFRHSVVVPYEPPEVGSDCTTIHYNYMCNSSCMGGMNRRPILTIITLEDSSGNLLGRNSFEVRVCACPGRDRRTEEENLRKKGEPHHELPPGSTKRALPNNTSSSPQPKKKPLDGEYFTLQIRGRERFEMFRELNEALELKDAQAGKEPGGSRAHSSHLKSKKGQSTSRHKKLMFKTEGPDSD

B1: GSE56 (p53 dominant negative peptide) (peptide)
peptide: MDGWCPGRDRRTEEENFRKKEEHCPELPPGSAKRALPTSTSSSPQQKKKPLDGEYFTLKIRGRERFEMFRELNEALELKDARAAEESGDSRAHSSYPKIVS
As to B1, the “fold decrease in TaqMan assay of CDKN1A (p21) gene fold expression at 24 hours post-editing” value is approximately 3 fold.

The values are drawn from patent publication US20210260216A1 (OSPEDALE SAN RAFFAELE S R L, published 2021).
